Data as given in patent US7723111.

Target: folate binding protein (FBP) (UniProt P15328)
Assay: cell-based or functional assay

Sequence of UniProt P15328 (P15328 25-234 limits assumed): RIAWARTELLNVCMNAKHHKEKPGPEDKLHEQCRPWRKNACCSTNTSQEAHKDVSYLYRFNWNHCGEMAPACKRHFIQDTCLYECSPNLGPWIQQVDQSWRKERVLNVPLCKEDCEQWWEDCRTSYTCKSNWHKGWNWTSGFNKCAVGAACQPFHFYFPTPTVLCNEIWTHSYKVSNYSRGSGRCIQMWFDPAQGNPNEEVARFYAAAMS

MOv-γ chimeric receptor
IFN-γ secretion (pg/ml) of MOv-γ transduced mouse T cells in response to 24JK-FBP cells (parental 24JK: 0; non-transduced T cells: 0): 5200 pg/mL | IFN-γ secretion (pg/ml) of MOv-γ transduced mouse T cells in response to IGROV (ovarian FBP +) cells (non-transduced T cells: 0): 37500 pg/mL | share of MOv-γ transduced human T cell clones (patient 410) reactive against the ovarian cancer target: 67 % of clones
